Assay [1] concerns the target T1, Human glycophorin A extract (hGPA extract) (human, UniProt P02724 20-150).
T1 construct: also called human GPA extracted from red blood cells (extract)
T1 sequence (looked up): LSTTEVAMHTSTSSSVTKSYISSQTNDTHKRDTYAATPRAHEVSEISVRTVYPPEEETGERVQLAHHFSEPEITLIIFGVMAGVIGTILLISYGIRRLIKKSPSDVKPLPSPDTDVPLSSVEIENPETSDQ
Put plainly: Biacore SPR, hGPA extract, apparent KD. Background: Surface plasmon resonance follows binding to a sensor surface in real time, without labels.

Assay [2] addresses T1, Human glycophorin A extract (hGPA …). Put plainly: Octet BLI, hGPA extract, apparent. (In general: Biolayer interferometry detects binding as a change in optical thickness at a sensor tip.)
The target of assay [3] is T2, Human glycophorin A on human erythrocytes (human, UniProt P02724 20-150).
T2 construct: whole, on cells; Target of the flow cytometry assays on human erythrocytes; also called human GPA; hGPA
T2 sequence (looked up): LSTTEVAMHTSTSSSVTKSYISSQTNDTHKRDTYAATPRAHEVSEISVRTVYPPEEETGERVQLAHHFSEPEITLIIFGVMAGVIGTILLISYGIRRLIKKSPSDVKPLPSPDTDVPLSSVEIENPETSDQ
Description: flow cytometry (FACS) on human erythrocytes, soluble Fab.

The target of assay [4] is T1, Human glycophorin A extract (hGPA …). Put plainly: Octet BLI, hGPA extract, apparent KD.
For assay [5] the target is unchanged. Description: Biacore SPR, hGPA extract, apparent.

Data on seven molecules can be found in US20220153859A1 (ANOKION, published 2022).

The koff is a measure of how fast the partners let go of each other. Broadly, the kon is the rate constant with which the complex forms. As usually defined, the EC50 is the concentration needed to bring the measured effect to its halfway point. Read a low EC50 as a more potent agent.

B1: Humanized 10F7-M10 Fab (non-affinity matured) (Fab)
heavy: EVQLLESGGGLVQPGKSLRLSCKASGYTFNSYFMHWVRQAPGKGLEWVGMIRPNGGTTDYNEKFKNRFTLSVDKSKNTAYLQMNSLRAEDTAVYYCARWEGSYYALDYWGQGTASTKGPSVFPLAPSSKSTSGGTAALGCLVKDYFPEPVTVSWNSGALTSGVHTFPAVLQSSGLYSLSSVVTVPSSSLGTQTYICNVNHKPSNTKVDKKVEPKSC
light: EITLTQSPATLSLSPGERATLSCRASSNVKYMYWYQQKPGQAPRLWIYYTSNLASGIPDRFSGSGSGTDYTLTISRLEPEDFAVYYCQQFTSSPYTFGQGTKVEVKRTVAAPSVFIFPPSDEQLKSGTASVVCLLNNFYPREAKVQWKVDNALQSGNSQESVTEQDSKDSTYSLSSTLTLSKADYEKHKVYACEVTHQGLSSPVTKSFNRGEC
notes: Soluble Fab expressed in HEK cells; also called clone m10; wild-type 10F7-M10
With B1, the Kd in assay [1] amounted to 141 nM; in assay [4], 140 nM. The koff in assay [2] was 0.0067 s⁻¹; in assay [5] it was 0.00667 s⁻¹. Moreover, the kon in assay [2] came to 47000 M⁻¹ s⁻¹; in assay [5] it was 47300 M⁻¹ s⁻¹. Also, it took 73 nM to reach a half-maximal effect in assay [3] (EC50).

B2: Humanized & affinity matured 10F7-M10 Fab clone L1+2-8 (Fab)
heavy: EVQLLESGGGLVQPGKSLRLSCKASGYTFNSYFMHWVRQAPGKGLEWVGMIRPNGGTTDYNEKFKNRFTLSVDKSKNTAYLQMNSLRAEDTAVYYCARWEGSYYALDYWGQGTASTKGPSVFPLAPSSKSTSGGTAALGCLVKDYFPEPVTVSWNSGALTSGVHTFPAVLQSSGLYSLSSVVTVPSSSLGTQTYICNVNHKPSNTKVDKKVEPKSC
light: EITLTQSPATLSLSPGERATLSCRASSNVIDMYWYQQKPGQAPRLWIHHTSYLASGIPDRFSGSGSGTDYTLTISRLEPEDFAVYYCQQFTSSPYTFGQGTKVEVKRTVAAPSVFIFPPSDEQLKSGTASVVCLLNNFYPREAKVQWKVDNALQSGNSQESVTEQDSKDSTYSLSSTLTLSKADYEKHKVYACEVTHQGLSSPVTKSFNRGEC
notes: Soluble Fab from HEK cells; all domains other than VL are the same as wild-type 10F7-M10; also called ID-HH-Y
With B2, the Kd in assay [1] and in assay [4] was 11 nM throughout. In addition, the koff in assay [2] was determined as 0.0022 s⁻¹; in assay [5] it was 0.00218 s⁻¹. For the same molecule, the figures for the kon in assay [2] and in assay [5] were 200000 M⁻¹ s⁻¹ and 198000 M⁻¹ s⁻¹, respectively. In assay [3], this molecule came in with an EC50 of 14 nM.

B3: Humanized & affinity matured 10F7-M10 Fab clone L1+2-1 (Fab)
heavy: EVQLLESGGGLVQPGKSLRLSCKASGYTFNSYFMHWVRQAPGKGLEWVGMIRPNGGTTDYNEKFKNRFTLSVDKSKNTAYLQMNSLRAEDTAVYYCARWEGSYYALDYWGQGTASTKGPSVFPLAPSSKSTSGGTAALGCLVKDYFPEPVTVSWNSGALTSGVHTFPAVLQSSGLYSLSSVVTVPSSSLGTQTYICNVNHKPSNTKVDKKVEPKSC
light: EITLTQSPATLSLSPGERATLSCRASSNVFFMYWYQQKPGQAPRLWIHHTSNLASGIPDRFSGSGSGTDYTLTISRLEPEDFAVYYCQQFTSSPYTFGQGTKVEVKRTVAAPSVFIFPPSDEQLKSGTASVVCLLNNFYPREAKVQWKVDNALQSGNSQESVTEQDSKDSTYSLSSTLTLSKADYEKHKVYACEVTHQGLSSPVTKSFNRGEC
notes: Soluble Fab from HEK cells; all domains other than VL are the same as wild-type 10F7-M10; also called FF-HH-N
With B3, the values for the Kd in assay [1] and in assay [4] were 5.95 nM and 5.9 nM, respectively. Also, the koff in assay [2] stood at 0.0018 s⁻¹; in assay [5], 0.00185 s⁻¹. In addition, the kon in assay [2] came to 310000 M⁻¹ s⁻¹; in assay [5], 311000 M⁻¹ s⁻¹. In addition, in assay [3], a half-maximal response (EC50) required 3.3 nM.

B4: Humanized & affinity matured 10F7-M10 Fab clone L1+2-25 (Fab)
heavy: EVQLLESGGGLVQPGKSLRLSCKASGYTFNSYFMHWVRQAPGKGLEWVGMIRPNGGTTDYNEKFKNRFTLSVDKSKNTAYLQMNSLRAEDTAVYYCARWEGSYYALDYWGQGTASTKGPSVFPLAPSSKSTSGGTAALGCLVKDYFPEPVTVSWNSGALTSGVHTFPAVLQSSGLYSLSSVVTVPSSSLGTQTYICNVNHKPSNTKVDKKVEPKSC
light: EITLTQSPATLSLSPGERATLSCRASSNVAWMYWYQQKPGQAPRLWIYHTSKLASGIPDRFSGSGSGTDYTLTISRLEPEDFAVYYCQQFTSSPYTFGQGTKVEVKRTVAAPSVFIFPPSDEQLKSGTASVVCLLNNFYPREAKVQWKVDNALQSGNSQESVTEQDSKDSTYSLSSTLTLSKADYEKHKVYACEVTHQGLSSPVTKSFNRGEC
notes: also called L1 + 2-8-25; AW-YH-K
In turn, B4 returned a concentration for a half-maximal effect (EC50) in assay [3] of 100 nM.

B5: Humanized & affinity matured 10F7-M10 Fab clone L1+2-14 (Fab)
heavy: EVQLLESGGGLVQPGKSLRLSCKASGYTFNSYFMHWVRQAPGKGLEWVGMIRPNGGTTDYNEKFKNRFTLSVDKSKNTAYLQMNSLRAEDTAVYYCARWEGSYYALDYWGQGTASTKGPSVFPLAPSSKSTSGGTAALGCLVKDYFPEPVTVSWNSGALTSGVHTFPAVLQSSGLYSLSSVVTVPSSSLGTQTYICNVNHKPSNTKVDKKVEPKSC
light: EITLTQSPATLSLSPGERATLSCRASSNVHQMYWYQQKPGQAPRLWIHHTSKLASGIPDRFSGSGSGTDYTLTISRLEPEDFAVYYCQQFTSSPYTFGQGTKVEVKRTVAAPSVFIFPPSDEQLKSGTASVVCLLNNFYPREAKVQWKVDNALQSGNSQESVTEQDSKDSTYSLSSTLTLSKADYEKHKVYACEVTHQGLSSPVTKSFNRGEC
notes: Soluble Fab from HEK cells; all domains other than VL are the same as wild-type 10F7-M10; also called HQ-HH-K
Regarding B5, the Kd in assay [1] was determined as 32.8 nM; in assay [4] it was 33 nM. For the same molecule, the koff in assay [2] turned out to be 0.00057 s⁻¹; in assay [5], 0.000568 s⁻¹. For the same molecule, the kon in assay [2] was 17000 M⁻¹ s⁻¹; in assay [5] it was 17300 M⁻¹ s⁻¹. Also, in assay [3], the EC50 came to 6.4 nM.

B6: Humanized & affinity matured 10F7-M10 Fab clone L1+2-10 (Fab)
heavy: EVQLLESGGGLVQPGKSLRLSCKASGYTFNSYFMHWVRQAPGKGLEWVGMIRPNGGTTDYNEKFKNRFTLSVDKSKNTAYLQMNSLRAEDTAVYYCARWEGSYYALDYWGQGTASTKGPSVFPLAPSSKSTSGGTAALGCLVKDYFPEPVTVSWNSGALTSGVHTFPAVLQSSGLYSLSSVVTVPSSSLGTQTYICNVNHKPSNTKVDKKVEPKSC
light: EITLTQSPATLSLSPGERATLSCRASSNVWFMYWYQQKPGQAPRLWIHHTSELASGIPDRFSGSGSGTDYTLTISRLEPEDFAVYYCQQFTSSPYTFGQGTKVEVKRTVAAPSVFIFPPSDEQLKSGTASVVCLLNNFYPREAKVQWKVDNALQSGNSQESVTEQDSKDSTYSLSSTLTLSKADYEKHKVYACEVTHQGLSSPVTKSFNRGEC
notes: Soluble Fab from HEK cells; all domains other than VL are the same as wild-type 10F7-M10; also called WF-HH-E
As to B6, the Kd was 6.43 nM in assay [1] and 6.4 nM in assay [4]. For the same molecule, the koff in assay [2] stood at 0.0014 s⁻¹; in assay [5] it was 0.00143 s⁻¹. Further, the kon in assay [2] is 220000 M⁻¹ s⁻¹; in assay [5] it was 222000 M⁻¹ s⁻¹. This molecule showed an EC50 in assay [3] of 3.3 nM.

B7: Humanized & affinity matured 10F7-M10 Fab clone L1+2-15 (Fab)
heavy: EVQLLESGGGLVQPGKSLRLSCKASGYTFNSYFMHWVRQAPGKGLEWVGMIRPNGGTTDYNEKFKNRFTLSVDKSKNTAYLQMNSLRAEDTAVYYCARWEGSYYALDYWGQGTASTKGPSVFPLAPSSKSTSGGTAALGCLVKDYFPEPVTVSWNSGALTSGVHTFPAVLQSSGLYSLSSVVTVPSSSLGTQTYICNVNHKPSNTKVDKKVEPKSC
light: EITLTQSPATLSLSPGERATLSCRASSNVFYMYWYQQKPGQAPRLWIHHTSWLASGIPDRFSGSGSGTDYTLTISRLEPEDFAVYYCQQFTSSPYTFGQGTKVEVKRTVAAPSVFIFPPSDEQLKSGTASVVCLLNNFYPREAKVQWKVDNALQSGNSQESVTEQDSKDSTYSLSSTLTLSKADYEKHKVYACEVTHQGLSSPVTKSFNRGEC
notes: Soluble Fab from HEK cells; all domains other than VL are the same as wild-type 10F7-M10; also called FY-HH-W
With B7, the Kd in assay [1] and in assay [4] was 7 nM in each case. The koff in assay [2] was determined as 0.0016 s⁻¹; in assay [5] it was 0.00155 s⁻¹. Further, the kon in assay [2] is 220000 M⁻¹ s⁻¹; in assay [5] it was 222000 M⁻¹ s⁻¹. Moreover, in assay [3], the EC50 is 3.4 nM.
